± gives the uncertainty stated by the source.
Assay: amyloid nucleation score (Sup35N fusion, yeast selection) (log enrichment); library NNK3; higher = more nucleation; inactive = no reads after selection
In short: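 Using DiMSum, nucleation scores were taken as the log enrichment of output over input reads, centred on the mode score of non-aggregating sequences. The input and output reads came from Illumina sequencing of plasmid inserts, with sequences under 100 input reads excluded. The yeast were psi-negative, expressed Sup35N fused to peptides of 20 random codons, were induced with 100 μM copper sulfate for 24 hours, and were grown 7 days at 30°C on medium lacking adenine and uracil.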

Substance | amyloid nucleation score
DNPTYRYTICGMTLEHPKEE | inactive
DPSPGYLLSY | inactive
DPVEIRG | inactive
DQGLLRLMDTWLCMGVRQPS | inactive
DRHLAINERARLVAWFYYDF | inactive
DRIGVQ | inactive
DRISSNDMCGWESGVISIHD | inactive
DRNAEELWCTRLLCYESCRT | inactive
DRRLPIKPHVFVYSCNSICM | 0.921 ± 0.17
DRYMRLCVFGYKYVSYG | inactive
DRYYDSLC | inactive
DSCQKVVWIGSGEVRKAWRY | inactive
DSDKNPHGVLSSIGCMYVRS | inactive
DSFLVYIKSCIIILTGLNLY | inactive
DSGKDKF | inactive
DSSNGFICR | inactive
DSSSLRSNVLVTVCVLVSSI | 0.375 ± 0.22
DSTVTSE | inactive
DSVFCVRLAKLVGLHSSF | inactive
DSYDLYIVD | inactive
DTDNWVLTDKTTGCSAVNGG | inactive
DTESWNCFFYRDYYSGQILK | inactive
DTEVHQNRFRMFGACDRERK | inactive

Substance | amyloid nucleation score
DTGDCVPGVLSRYLMIWDG | inactive
DTQSKTRRV | inactive
DTVKKVYSYYMTLNYVEPLP | inactive
DVFVHHDM | inactive
DVITIEYVCF | inactive
DVNHVMNMNIGSNRN | inactive
DVPSSSSMAFGIWLGLLCLD | inactive
DVRMLRLMVRELYC | inactive
DVYGDGCSCYSVKYTCDRCQ | inactive
DWFSAVR | inactive
DWRMLRGFYLHINCMLSFQG | inactive
DWVGRYSVSMWILIGRGSLW | inactive
DYCGKRYPSASVKWPECFRG | inactive
DYDRIR | inactive
DYDYTRFPVITV | inactive
DYEHSGSCKIDFVTL | inactive
DYESMTCNVSSDTVPFQQA | inactive
DYFEYCRRSKRFPKKDQPVN | -0.638 ± 0.84
DYMLLWNCVLVILFN | 0.323 ± 0.45
DYNSCCSEREVGKKEYTKNN | inactive
DYTCACLRVRI | -0.047 ± 0.98
DYVWADLFCWASGSYLDGEC | inactive
EAFSSHKNFNVTCFPK | 1.77 ± 0.11

Substance | amyloid nucleation score
EALGKSFLVKFKTIKYLRLA | inactive
EAPFDHPLYLRDLY | inactive
ECGWNMFCDRAHMSLGFYSM | inactive
ECRHSEWTEYFPSMRFMQAY | inactive
ECYLEIASDSYINLKFARIE | 0.019 ± 0.73
ECYVR | inactive
EDGLGSYFNKKVNATCLNLA | inactive
EDKGYWNLQAIEIVIQYGGR | 0.225 ± 0.43
EDMVARGSLSKGHWKDLAT | inactive
EELLRGFGAVGSWLNLSLEV | inactive
EFCVYMSNGGKNLRTRTWAQ | 0.54 ± 0.31
EFIGGRAMLYEEWYMGVSSM | inactive
EFLPKWDMQARDVTTLFGCP | inactive
EFLPSCICDGKFISSLVCEP | inactive
EFSKHFPCWHRNSVAYYEIR | inactive
EFTFWWCCDRYSRAELTCRR | inactive
EFYGVVSRVPYERTPGTKVE | inactive
EGGDHCMNGHCVCRVGWLWA | inactive
EGGLDFVFLYYGIICWVVAA | 0.282 ± 0.74
EGHHPVGGGLLIFASLT | inactive
EGRCMRKCARVNGSWAMKWM | inactive
EGRWTCPFGGWTESFGSLYW | inactive
EGSDIA | inactive

Substance | amyloid nucleation score
EGYQVFFNDLVLTLVMRVEV | inactive
EGYRFCCGMLIN | inactive
EHLPSSHP | inactive
EHSNNFTHNYVFWIGIGLAC | inactive
EHYVDCVGDVAVRDVLVGAS | inactive
EILSPVGTSTCILTSPRTCY | inactive
EINFMKRASRVRLKQYNQ | 0.64 ± 0.26
EINMKSLV | inactive
EIWSDKCSTRSMLHPAYIMY | inactive
EKDMFQNVLLVKAYD | inactive
EKFTMLARSKAAICLVDKSC | -0.463 ± 0.93
EKRYRPEKTF | inactive
ELAFMNYYNNECSRPLLSSP | inactive
ELDAYIRRGLCSLKWCRKLN | inactive
ELHYPVLVDS | inactive
ELIDFTIGLL | inactive
ELMHFLAFVGDAMYVLSGII | inactive
ELNWWHLLVICCVYYFMVLF | inactive
ELRSHKLMMGRQYLHRLCSV | inactive
ELSSLSFHIHNMEFREKVKG | inactive
ELVVTNVNGFLMW | inactive
ELYSDG | inactive
EMGEGIL | inactive

Substance | amyloid nucleation score
EMTMTWCMVVRLVWVTNGIL | inactive
EMVLGWSARFCDK | 1.65 ± 0.088
ENLSEVWLSYVDSLSIYVLS | inactive
ENNVRTVHVISWAIFLSTYF | inactive
ENVARGAMFCPMHRGFQSSE | inactive
ENWDSILCKWRGAGMRGSAW | inactive
EPDFEHIVCAFMGSTTGYYW | inactive
EPNVFSSLGILNINVVALWL | 0.98 ± 0.2
EQIPMKSVEGEYWLTVIVGN | inactive
EQMWFEVCYGCRSCSEALLR | inactive
ERHDGCFQ | inactive
ERNNKCDNTVLMKREELQG | inactive
ERQNMSYMGHKKEYLNHYFW | inactive
ERRIPRSNLKRRSKLSKFPA | inactive
ERRVLISERAQWISLLYGIL | inactive
ERSFAYDYDCSVCFTHAFAT | inactive
ERTSYSC | inactive
ESAYFLAYLQVLLWRVMGEL | inactive
ESKMGCP | inactive
ESMTSNYYQMIGVFCEMLVR | inactive
ESNDIIINV | inactive
ESNRTFTKSTFFLTNEVKGL | inactive
ESPNGFFGSMDVCVLPRGSV | inactive

Substance | amyloid nucleation score
ESRFCTYVSSRDYISTIQFN | inactive
ESSISTLFIFNMVGPQ | 2.21 ± 0.068
ETDYVGRFALMKYDGLVYI | inactive
ETGLLFGWDRVSSYWGVLKT | inactive
ETRMGTK | inactive
ETTYGFDKIYGVEYVCGLCR | inactive
ETYNRR | -0.227 ± 0.69
EVGDPMYRTIGVKFGPLAME | inactive
EVGVTSLTIGHVT | 1.29 ± 0.096
EVLGSLFYFGYTTGLFIPF | inactive
EVLSNDGAGLFFHGKKCMYI | inactive
EVQEKAEHHVLVGRVANPRF | inactive
EVSIKAVDWRVSDVTVARTC | -0.228 ± 0.93
EVSSGCCERGVYLMLLCTGT | 0.091 ± 0.53
EVYKYKSEERMVAST | inactive
EYIAFISTIPDMSLFSDVLF | 0.653 ± 0.11
EYKRTSMVVQFSCSAYILTF | inactive
EYMYIYPPFPMPWDDG | inactive
EYQTNNDYLQLTCLKSSWSS | inactive
EYYGRVLSLTVTNIHFFRVF | inactive
EYYLDMDLMFMMG | inactive
FAGCWTVTSMGFCNRSGMKL | inactive
FAGESN | inactive

Substance | amyloid nucleation score
FARKWCVKNGYGSRTSASFM | inactive
FASIYNFHDRIVSLRDQGR | inactive
FAYLVS | inactive
FCARYLFCLISGDYS | inactive
FCGIYCKAINSFAVDLMPWI | inactive
FCHRYEMYIELTYTEGA | inactive
FCLCAFSALQRVYI | inactive
FCLVFSELILFCVCSWVNST | inactive
FCRCKLFFAGCF | 1.08 ± 0.13
FCRHVKFYRMRAACVDNRRI | inactive
FDGYCFFYYWLGVWWSTSI | inactive
FDKTCGSSRNLSRAWDNLTF | inactive
FDVNIPFCSNSFSYHTNSGS | inactive
FECGRFMGLVVLAVRSGNVM | inactive
FEDLKTDSILYQFSRAYGDW | inactive
FEETIINFCRYLFMMFTGVV | 1.87 ± 0.1
FEIRLFISGQDQAHGCCPWY | inactive
FELDIAYTEVLAVDCIPVVL | inactive
FEYNRQYTRLSSVRVRIRGS | inactive
